This note sets out measurements from PMC1318456.

This experiment addresses Non-muscle actin (99% pure; 80% β-actin, 20% γ-actin), polymerized (UniProt P60709). Description: co-sedimentation; actin filaments first bundled with α-actinin for 30 min at room temperature, CRP1 then added for a further 30 min, 10,000 x g; supernatant and pellet on gel, Gelcode Blue.

“α-actinin purified from chicken gizzard (from UniProt P05094 1-893) (natural protein)” gave a fold increase of α-actinin in the actin bundles with CRP1 added, against without CRP1 of 2 fold.
